{"source": "patent US20240287172A1", "about": "(SCIRHOM, published 2024)", "binders": {"B1": {"name": "antibody 3 (antibody, V domains shown)", "VH": "QVTLKESGPGILQPSQTLSLTCSFSGFSLTTFAMGIGWVRQPSGKGLEWLAHIWWDGEKYNNPVLKSRLTISKDTSKNQVFLRIANVDTPDTATYYCARISSIYYIIDNWGQGTSVTVSS", "VL": "DIVLTQSPATLSVTPGHSVSLSCRASQSISNNLHWYQKKSHESPRLLIKYVSQSISGIPSRFSGSGSGTDFTLSINSVETEDFGMYFCQQSYNWPLTFGAGTKLELK", "notes": "mouse IgG, kappa light chain; also called clone #3; purified antibody 3"}, "B2": {"name": "antibody 50 (antibody, V domains shown)", "VH": "QVQLQQSGAELVRPGASVKVSCKASGYAFSNYLIEWVKQRPGQGLEWIGVINPGSGFTKYNEKFKGKATLTADKSSSTAYMQLSSLTSEDSAVYFCARGLYRAMDYWGQGTSVTVSS", "VL": "DIQMTQSPASQSASLGESVTITCLASQTIGTWLAWYQQKPGKSPQLLIYAAASLADGVPSRFSGGGSGTKFSFKISSLQAEDFVNYYCQQIYSTPYTFGGGTKLEIK", "notes": "mouse IgG, kappa light chain; also called clone #50; purified antibody 50"}}, "key": {"hiR2-FL-K573A-T7": {"target": "T1, hiR2-FL-K573A-T7 (human, UniProt Q6PJF5 1-856)", "T1 sequence": "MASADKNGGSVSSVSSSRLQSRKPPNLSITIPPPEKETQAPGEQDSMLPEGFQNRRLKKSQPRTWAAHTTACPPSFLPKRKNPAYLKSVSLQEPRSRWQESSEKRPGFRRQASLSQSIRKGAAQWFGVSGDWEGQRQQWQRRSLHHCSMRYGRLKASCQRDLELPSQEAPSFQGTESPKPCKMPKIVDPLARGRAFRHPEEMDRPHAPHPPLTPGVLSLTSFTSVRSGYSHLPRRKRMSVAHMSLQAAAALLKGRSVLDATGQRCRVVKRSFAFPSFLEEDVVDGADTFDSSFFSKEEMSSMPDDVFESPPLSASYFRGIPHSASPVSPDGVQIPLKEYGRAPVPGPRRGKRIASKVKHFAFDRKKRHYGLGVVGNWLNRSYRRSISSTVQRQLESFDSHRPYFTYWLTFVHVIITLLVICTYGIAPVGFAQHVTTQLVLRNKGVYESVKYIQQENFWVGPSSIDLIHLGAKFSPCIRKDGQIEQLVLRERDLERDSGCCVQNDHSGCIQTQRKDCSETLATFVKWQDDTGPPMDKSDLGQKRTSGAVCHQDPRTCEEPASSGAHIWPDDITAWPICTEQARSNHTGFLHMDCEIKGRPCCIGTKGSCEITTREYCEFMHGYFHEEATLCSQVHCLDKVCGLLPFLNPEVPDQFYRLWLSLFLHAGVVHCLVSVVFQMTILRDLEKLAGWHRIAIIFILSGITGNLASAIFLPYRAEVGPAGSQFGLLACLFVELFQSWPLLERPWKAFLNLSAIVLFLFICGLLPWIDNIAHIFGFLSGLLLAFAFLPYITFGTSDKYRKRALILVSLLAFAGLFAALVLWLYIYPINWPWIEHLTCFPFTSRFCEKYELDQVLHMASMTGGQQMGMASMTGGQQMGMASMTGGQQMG", "test": "FACS on MEF-DKO cells expressing the variant, 3 µg/ml antibody", "outline": "(§1)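 Cells were stained with purified antibody at 3 μg/ml in FACS buffer for 1 hour on ice, with buffer-only controls. Bound antibody was detected with PE-conjugated goat anti-mouse IgG F(ab′)2 at 1:100, 1 hour on ice in the dark, followed by flow cytometry.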"}, "hiR2-FL-Q510A-T7": {"target": "T2, hiR2-FL-Q510A-T7 (human, UniProt Q6PJF5 1-856)", "T2 construct": "reduced surface expression reported", "T2 sequence": "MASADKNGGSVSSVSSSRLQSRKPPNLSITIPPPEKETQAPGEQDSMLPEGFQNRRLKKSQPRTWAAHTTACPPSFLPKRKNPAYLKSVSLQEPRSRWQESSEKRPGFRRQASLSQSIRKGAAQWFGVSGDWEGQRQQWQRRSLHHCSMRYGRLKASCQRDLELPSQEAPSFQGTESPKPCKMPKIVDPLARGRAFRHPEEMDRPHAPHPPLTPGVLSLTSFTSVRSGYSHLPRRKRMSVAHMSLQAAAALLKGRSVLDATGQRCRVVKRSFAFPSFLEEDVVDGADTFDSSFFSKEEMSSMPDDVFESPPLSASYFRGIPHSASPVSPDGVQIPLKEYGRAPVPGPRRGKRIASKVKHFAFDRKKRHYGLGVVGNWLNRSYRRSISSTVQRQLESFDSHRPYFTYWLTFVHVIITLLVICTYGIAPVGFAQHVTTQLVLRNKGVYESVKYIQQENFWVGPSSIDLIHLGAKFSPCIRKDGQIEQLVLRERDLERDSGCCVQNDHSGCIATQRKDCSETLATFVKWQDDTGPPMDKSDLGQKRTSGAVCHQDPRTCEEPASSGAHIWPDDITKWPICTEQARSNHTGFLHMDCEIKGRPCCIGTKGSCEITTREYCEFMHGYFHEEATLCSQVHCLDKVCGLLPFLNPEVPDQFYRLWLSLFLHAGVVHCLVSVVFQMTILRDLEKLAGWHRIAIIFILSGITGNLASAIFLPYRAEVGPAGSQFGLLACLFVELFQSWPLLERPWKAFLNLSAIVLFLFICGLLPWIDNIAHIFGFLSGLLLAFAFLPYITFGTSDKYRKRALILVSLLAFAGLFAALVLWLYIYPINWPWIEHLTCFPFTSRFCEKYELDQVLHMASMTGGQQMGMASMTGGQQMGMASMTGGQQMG", "test": "FACS on MEF-DKO cells expressing the variant, 3 µg/ml antibody", "outline": "as §1"}}}
{"binder": "B1", "values": [{"measurement": "loss of binding vs wild type", "setting": "hiR2-FL-K573A-T7", "value": "≥ 30", "unit": "%"}]}
{"binder": "B2", "values": [{"measurement": "loss of binding vs wild type", "setting": "hiR2-FL-Q510A-T7", "value": "≥ 30", "unit": "%"}]}
